This experiment concerns the target T1, MLO-Y4 cell surface proteins (Mus musculus, UniProt E9Q9D8).
T1 construct: endogenous in cells; host or cells: MLO-Y4
T1 sequence (E9Q9D8 1-996): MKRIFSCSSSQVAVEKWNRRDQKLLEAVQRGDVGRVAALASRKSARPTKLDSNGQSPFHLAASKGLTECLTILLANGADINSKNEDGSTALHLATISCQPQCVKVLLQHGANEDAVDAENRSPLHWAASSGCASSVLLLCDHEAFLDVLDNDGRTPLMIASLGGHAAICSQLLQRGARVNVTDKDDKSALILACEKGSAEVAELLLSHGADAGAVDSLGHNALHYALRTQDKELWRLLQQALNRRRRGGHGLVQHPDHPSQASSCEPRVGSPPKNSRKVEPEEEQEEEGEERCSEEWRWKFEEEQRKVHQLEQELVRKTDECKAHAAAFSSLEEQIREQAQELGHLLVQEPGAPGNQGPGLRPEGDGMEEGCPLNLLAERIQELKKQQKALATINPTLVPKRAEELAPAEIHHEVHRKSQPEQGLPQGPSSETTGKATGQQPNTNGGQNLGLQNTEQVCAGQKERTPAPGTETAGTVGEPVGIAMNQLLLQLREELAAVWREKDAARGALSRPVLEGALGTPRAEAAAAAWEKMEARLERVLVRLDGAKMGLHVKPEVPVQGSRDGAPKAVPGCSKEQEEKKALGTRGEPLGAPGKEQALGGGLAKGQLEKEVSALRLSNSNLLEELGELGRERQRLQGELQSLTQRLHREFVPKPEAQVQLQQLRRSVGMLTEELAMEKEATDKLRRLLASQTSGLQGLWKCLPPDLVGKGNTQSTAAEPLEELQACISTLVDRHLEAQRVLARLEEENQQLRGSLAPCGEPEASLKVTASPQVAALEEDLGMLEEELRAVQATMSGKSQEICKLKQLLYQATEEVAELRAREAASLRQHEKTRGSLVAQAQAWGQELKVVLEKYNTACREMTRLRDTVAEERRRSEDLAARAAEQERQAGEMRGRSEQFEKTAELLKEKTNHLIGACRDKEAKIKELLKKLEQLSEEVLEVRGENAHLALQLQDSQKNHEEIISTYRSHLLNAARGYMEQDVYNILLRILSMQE
The experiment in a line: Crosslinking/co-immunoprecipitation/mass spectrometry (TMT quantitative proteomics) to identify irisin receptors. The format is binding. Particulars: co-precipitated protein Ankrd35 (E9Q9D8_MOUSE). Summed up:
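Relative protein abundance came from 6-plex TMT MS3 quantitation on an Orbitrap Fusion Lumos, after in-gel trypsin digestion of Coomassie-stained SDS-PAGE lanes. Input was a Ni-NTA pulldown (250 mM imidazole elution) of lysates from murine MLO-Y4 cells. These cells were treated on ice with His-tagged irisin or adipsin (10 nM, 20 min) in serum-free medium, then crosslinked with 1.5 mM DTSSP for 30 min.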

The text below walks through data of patent publication US20210063414A1, “METHODS FOR PREVENTING AND/OR TREATING BONE LOSS CONDITIONS BY MODULATING IRISIN” (Dana-Farber Cancer Institute, Inc., priority 2018, published 2021).

Consider adipsin, for which the TMT signal-to-noise ratio stood at 314.798.
